Target: CD19 on Daudi cells (CD19 positive target tumor cells) (UniProt P15391)
Assay: cell-based or functional assay

Sequence of UniProt P15391 (P15391 20-556 limits assumed): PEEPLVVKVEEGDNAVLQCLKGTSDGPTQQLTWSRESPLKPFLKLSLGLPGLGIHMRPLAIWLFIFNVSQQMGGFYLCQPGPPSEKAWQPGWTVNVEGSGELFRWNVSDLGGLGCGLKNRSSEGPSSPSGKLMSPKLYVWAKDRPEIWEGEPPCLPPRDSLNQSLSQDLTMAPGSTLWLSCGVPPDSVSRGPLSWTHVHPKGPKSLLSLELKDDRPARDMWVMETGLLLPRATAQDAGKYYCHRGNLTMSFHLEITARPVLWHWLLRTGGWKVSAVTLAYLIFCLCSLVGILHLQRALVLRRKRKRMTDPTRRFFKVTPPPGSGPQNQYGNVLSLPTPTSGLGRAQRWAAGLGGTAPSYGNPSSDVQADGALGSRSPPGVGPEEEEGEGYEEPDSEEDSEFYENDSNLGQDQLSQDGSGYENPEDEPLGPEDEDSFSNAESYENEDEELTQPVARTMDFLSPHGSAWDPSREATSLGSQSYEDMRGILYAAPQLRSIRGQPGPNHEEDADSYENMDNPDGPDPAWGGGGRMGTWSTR

Substance: CD19(4G7) scFv/4-1BB/CD3ζ CAR (receptor)
- % CD107a+ of CD4+ T cells, 6 hr co-culture with Daudi cells: 30.4%
- % CD107a+ of CD8+ T cells, 6 hr co-culture with Daudi cells: 44.6%
- % CD107a+ of NK cells (CD5-CD56+), co-culture with Daudi cells: 32.5%
- % CD107a+ of NKT cells, 6 hr co-culture with Daudi cells: 48.6%
- % CD107a+ of TCRγδ T cells, co-culture with Daudi cells: 23.2%
- % CD107a+ of residual TCRαβ+ cells, 6 hr co-culture with Daudi cells: 64.8%
- % IFNγ+ of CD8+ T cells, co-culture with Daudi cells: 16.7%
- % IFNγ+ of NKT cells, co-culture with Daudi cells: 24.8%
- % IFNγ+ of TCRγδ T cells, co-culture with Daudi cells: 7.46%
- % IFNγ+ of residual TCRαβ+ cells, co-culture with Daudi cells: 50.9%
- % IL2+ of CD8+ T cells, co-culture with Daudi cells: 0.69%
- % IL2+ of NKT cells, co-culture with Daudi cells: 1.07%
- % IL2+ of TCRγδ T cells, co-culture with Daudi cells: 0.23%
- % IL2+ of residual TCRαβ+ cells, co-culture with Daudi cells: 13.9%
- % TNFα+ of CD8+ T cells, co-culture with Daudi cells: 21.5%
- % TNFα+ of NKT cells, co-culture with Daudi cells: 28.3%
- % TNFα+ of TCRγδ T cells, co-culture with Daudi cells: 12.9%
- % TNFα+ of residual TCRαβ+ cells, co-culture with Daudi cells: 50%
